This assay addresses maltose-binding protein (MBP-DHhN) modified with 6-azicholestanol (not stated | Drosophila). As to the kind of experiment: cross-linking.

For orientation: stoichiometry N means the number of molecules, sites or subunits per partner or assembly.

“Scube2, HA-tagged (from UniProt Q9JJS0 29-997) (natural protein)” came in with a stoichiometry N of 1.

These data come from publication PMC3682496.
